The values that follow come from patent publication US20030059436A1, “Band 3 antigenic peptides, malaria polypeptides and uses thereof” (priority 2001, published 2003).

Usually Kd stands for the free concentration of one partner at which half of the binding sites on the other are occupied at equilibrium, for simple one-to-one binding.

Ends that are not written are not given here.

The target in assay [1] is P. falciparum (3D7 strain) merozoite proteins (approximate molecular masses 175, 150, 125, 52, 48, 42, and 35 kDa). The assay can be described thus: cell-based or functional assay.
A further assay has as its system RBCs. The following applies: literature reports; cited from earlier work.
A further assay deals with T1, GST-5ABC (Homo sapiens, UniProt P02730).
T1 construct: The 5ABC (amino acid 720-761), 5BC (731-761), and 6AB (807-842) genes were amplified from a human reticulocyte cDNA library; made in house; host or cells: E. coli (pGEX-2TK)
T1 sequence (P02730 720-761): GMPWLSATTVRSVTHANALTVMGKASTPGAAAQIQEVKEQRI
The assay can be described thus: Native MSP1 binding to GST-5ABC beads. The following applies: Triton X-100 parasite extract, 22-24 h at 4° C.; GST beads as control.

The next assay addresses T2, GST-MSP142 (Plasmodium falciparum, UniProt P04933).
T2 construct: amino acids 1264-1639; made in house; host or cells: E. coli DH5α (pGEX6P-2)
Put plainly: Solution-binding assay, GST-MSP142 on beads. On the set-up: species or system P. falciparum (FCB1 strain). The source says:
(§1) MSP138 (SEQ ID NO:33), MSP142 (SEQ ID NO:34), and MSP119 (SEQ ID NO:35) genes were amplified from a P. falciparum (FCB1 strain) cDNA library (J. B. Dame) by PCR using the following primers: 5′-[…] (SEQ ID NO: 14, MSP138, sense, 3121-3133, Xhol), 5′-[…] (SEQ ID NO:15, MSP138, antisense, 4200-4193, NotI), 5′-[…] (SEQ ID NO:16, MSP142, sense, 4201-4218, XhoI), 5′-[…] (SEQ ID NO:17, MSP142, antisense, 5334-5321 NotI), 5′-[…]: (SEQ ID NO:18, MSP119, sense, 4993-5009 BamHI), 5′-[…] (SEQ ID NO:19, MSP119, antisense, 5334-5318, EcoRI). Similar cDNA libraries as well as CDNA pools are available to the public from MR4, ATCC (www.malaria.atcc.org).
(§2) Primers: 5′-[…] […] (SEQ ID NO:26, 6AB, antisense, 2640-2620, EcoRI).

Another assay has as its system GST-MSP138. The assay can be described thus: Solution-binding assay, GST-MSP138 on beads. On the set-up: species or system P. falciparum (FCB1 strain). The conditions noted are these: 32P-labeled 5BC 21, 42, 84, 168 μM.
Source text: as §1, §2

Assay [2] deals with mouse erythroid Band 3 protein on wild-type mouse RBCs (mouse) (UniProt P04919). The assay can be described thus: 32P-MSP119 on intact mouse RBCs in suspension; RBCs treated with neuraminidase, against untreated RBCs.
mouse erythroid Band 3 protein on wild-type mouse RBCs (mouse), sequence (P04919 whole entry): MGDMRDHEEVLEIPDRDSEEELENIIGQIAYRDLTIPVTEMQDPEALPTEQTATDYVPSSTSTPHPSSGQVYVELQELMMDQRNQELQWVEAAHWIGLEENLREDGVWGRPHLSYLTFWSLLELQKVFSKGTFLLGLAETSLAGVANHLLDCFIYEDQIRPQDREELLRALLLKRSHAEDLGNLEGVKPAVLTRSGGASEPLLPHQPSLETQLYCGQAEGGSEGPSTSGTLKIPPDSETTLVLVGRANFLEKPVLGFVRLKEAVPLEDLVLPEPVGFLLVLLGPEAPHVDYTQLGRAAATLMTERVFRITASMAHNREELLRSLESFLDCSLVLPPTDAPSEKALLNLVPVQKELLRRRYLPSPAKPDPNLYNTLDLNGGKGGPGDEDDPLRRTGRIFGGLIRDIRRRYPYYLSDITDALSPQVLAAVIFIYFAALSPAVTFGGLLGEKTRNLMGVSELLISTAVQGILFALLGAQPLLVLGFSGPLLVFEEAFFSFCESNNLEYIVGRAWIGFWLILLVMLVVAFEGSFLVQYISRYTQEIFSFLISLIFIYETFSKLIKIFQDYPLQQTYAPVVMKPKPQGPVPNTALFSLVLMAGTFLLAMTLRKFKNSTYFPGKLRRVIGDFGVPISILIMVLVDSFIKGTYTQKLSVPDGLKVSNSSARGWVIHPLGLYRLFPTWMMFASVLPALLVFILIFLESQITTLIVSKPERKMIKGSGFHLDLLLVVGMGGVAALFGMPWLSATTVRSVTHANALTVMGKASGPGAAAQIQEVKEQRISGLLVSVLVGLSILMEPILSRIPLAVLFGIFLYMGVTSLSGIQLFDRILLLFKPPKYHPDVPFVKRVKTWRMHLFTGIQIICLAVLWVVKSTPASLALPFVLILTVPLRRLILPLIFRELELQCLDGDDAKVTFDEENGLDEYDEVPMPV
The target is the same in assay [3]. The assay can be described thus: 32P-MSP119 on intact mouse RBCs in suspension; RBCs treated with chymotrypsin 40 min, against untreated RBCs.
Assay [4] has as its target human erythroid Band 3 protein (Anion Exchanger 1) on human RBCs (human) (UniProt P02730). Put plainly: 32P-MSP119 on intact human RBCs in suspension; RBCs treated with neuraminidase, against untreated RBCs.
For assay [5] the target is unchanged. The assay can be described thus: 32P-MSP119 on intact human RBCs in suspension; RBCs treated with chymotrypsin 40 min, against untreated RBCs.
The target is the same in assay [6]. Put plainly: 32P-MSP119 on intact human RBCs in suspension; RBCs treated with chymotrypsin 10 min, against untreated RBCs.
The target of assay [7] is mouse erythroid Band 3 protein on wild-type mouse RBCs (mouse) (UniProt P04919). The assay can be described thus: 32P-MSP119 on intact Band 3 (-/-) mouse RBCs against untreated wild-type mouse RBCs in suspension.
In assay [8] the test system is human RBCs fixed in methanol. The following applies: GST-MSP142 1 μM, GST-MSP138 8 μM; GST alone did not bind. On the procedure: (§3) RBCs freshly collected into citrate phosphate dextrose buffer were washed (3×) and resuspended in RPMI (20% hematocrit). Thin smears of RBCs on glass slides were allowed to air-dry and fixed in methanol (20-30 sec). The slides were washed with PBS (1×), blocked with 10% fetal bovine serum (FBS) in PBS (pH 7.4) for 1.5 h at 37° C., and again washed with PBS (5×, 10 min each). Fixed cells were incubated with GST-MSP142 (1 μM), GST-MSP138 (8 μM), or GST (9 μM) for 3.5 h at 37° C. in 10% FBS. Slide samples were washed with PBS (5×), incubated with goat anti-GST antibody (1:1,000, Amersham Pharmacia Biotech), washed again (5×), and incubated with rabbit anti-goat FITC-conjugated antibody (1:60, Sigma-Aldrich, St. Louis, Mo.). For visualizing spectrin, fixed cells treated with 10% FBS were incubated with a rabbit antibody raised against human spectrin (Sigma-Aldrich) followed by goat anti-rabbit FITC-conjugated antibody. All dilutions of proteins and antibodies were made in 10% FBS except FITC-conjugated antibodies.
(§4) First, the above-described RBC binding assay was performed using ^32P-labeled MSP119 and intact Band 3 (−/−) mouse RBCs in suspension. […] In the second method, we carried out an indirect immunofluorescence assay (IFA) using wild-type human and mouse RBCs and Band 3 (−/−) mouse RBCs fixed in methanol.

For assay [9], the system named is mouse RBCs fixed in methanol. The conditions noted are these: GST-MSP142 1 μM, GST-MSP138 8 μM. On the procedure: as §3, §4
Assay [10] addresses GST-MSP138 (P. falciparum FCB1 MSP1 38 kDa fragment as GST fusion protein, C-terminal truncated forms) (Plasmodium falciparum (FCB1 strain)) [GST: P08515]. Put plainly: solution-binding assay, 32P-labeled peptide on GST fusion beads.
For assay [11], the target named is GST-MSP142 (P. falciparum FCB1 MSP1 42 kDa fragment as GST fusion protein) (Plasmodium falciparum (FCB1 strain)) [GST: P08515]. Described as above.
GST-MSP142 (P. falciparum FCB1 MSP1 42 kDa fragment as GST fusion protein) (Plasmodium falciparum (FCB1 strain)) [GST: P08515], sequence (P08515 whole entry, the tested form may be a part): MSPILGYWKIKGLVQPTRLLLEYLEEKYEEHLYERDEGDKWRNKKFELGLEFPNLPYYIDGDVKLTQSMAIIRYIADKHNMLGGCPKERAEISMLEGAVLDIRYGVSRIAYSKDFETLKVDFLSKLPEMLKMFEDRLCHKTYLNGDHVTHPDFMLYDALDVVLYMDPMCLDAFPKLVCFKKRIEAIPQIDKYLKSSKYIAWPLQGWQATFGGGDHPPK
In assay [12] the target is T3, SV40 large T-antigen fused to GAL4 AD (pGADT7 vector), two-hybrid control (UniProt P03070 86-708).
T3 construct: Kit control; also called pGADT7-T
T3 sequence (P03070 86-708 limits assumed): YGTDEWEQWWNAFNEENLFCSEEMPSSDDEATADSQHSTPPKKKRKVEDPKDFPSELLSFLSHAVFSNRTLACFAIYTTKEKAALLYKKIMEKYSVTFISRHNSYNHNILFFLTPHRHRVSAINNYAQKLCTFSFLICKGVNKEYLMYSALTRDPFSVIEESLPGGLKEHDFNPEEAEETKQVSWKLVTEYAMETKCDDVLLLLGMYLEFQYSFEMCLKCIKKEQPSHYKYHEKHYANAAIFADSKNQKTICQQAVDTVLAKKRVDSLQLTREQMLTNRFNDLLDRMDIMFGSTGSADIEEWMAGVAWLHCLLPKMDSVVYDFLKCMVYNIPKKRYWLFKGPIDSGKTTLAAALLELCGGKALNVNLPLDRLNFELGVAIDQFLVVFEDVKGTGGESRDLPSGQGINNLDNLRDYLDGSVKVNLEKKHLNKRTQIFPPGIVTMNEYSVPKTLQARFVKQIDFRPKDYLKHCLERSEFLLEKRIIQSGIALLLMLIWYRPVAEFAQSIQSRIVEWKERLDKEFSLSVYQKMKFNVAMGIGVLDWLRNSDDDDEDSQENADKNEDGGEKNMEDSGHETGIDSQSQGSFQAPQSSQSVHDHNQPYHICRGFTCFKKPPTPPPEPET
Put plainly: yeast two-hybrid assay (negative control).

Assay [13] addresses T3, SV40 large T-antigen fused to GAL4 AD …. Put plainly: yeast two-hybrid assay (positive control).

human erythroid Band 3 protein (Anion Exchanger 1) on human RBCs (human), sequence (P02730 whole entry, form in doubt): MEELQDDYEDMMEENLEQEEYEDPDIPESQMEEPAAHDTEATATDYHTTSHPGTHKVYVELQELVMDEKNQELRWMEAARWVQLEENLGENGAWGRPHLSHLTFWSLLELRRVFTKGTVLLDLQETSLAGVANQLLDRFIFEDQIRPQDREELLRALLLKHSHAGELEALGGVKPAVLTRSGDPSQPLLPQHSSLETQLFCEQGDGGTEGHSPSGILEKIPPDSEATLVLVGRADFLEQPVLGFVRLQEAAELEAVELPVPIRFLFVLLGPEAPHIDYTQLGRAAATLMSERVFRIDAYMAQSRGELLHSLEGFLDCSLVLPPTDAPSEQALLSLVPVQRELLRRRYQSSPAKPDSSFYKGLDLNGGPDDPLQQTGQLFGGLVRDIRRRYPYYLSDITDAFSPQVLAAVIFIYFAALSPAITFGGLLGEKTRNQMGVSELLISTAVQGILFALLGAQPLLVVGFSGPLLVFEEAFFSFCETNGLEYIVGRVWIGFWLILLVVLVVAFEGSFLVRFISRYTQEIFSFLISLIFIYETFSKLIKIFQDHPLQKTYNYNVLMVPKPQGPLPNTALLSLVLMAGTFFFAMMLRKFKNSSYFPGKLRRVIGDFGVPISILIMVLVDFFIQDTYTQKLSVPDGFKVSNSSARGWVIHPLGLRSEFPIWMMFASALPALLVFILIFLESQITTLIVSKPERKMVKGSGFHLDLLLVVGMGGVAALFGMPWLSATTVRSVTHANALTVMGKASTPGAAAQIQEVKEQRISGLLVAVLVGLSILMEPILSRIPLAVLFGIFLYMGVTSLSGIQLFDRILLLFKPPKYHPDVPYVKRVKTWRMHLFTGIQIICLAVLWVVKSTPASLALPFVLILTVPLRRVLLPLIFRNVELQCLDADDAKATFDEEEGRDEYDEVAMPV
T2 sequence (P04933 1264-1639): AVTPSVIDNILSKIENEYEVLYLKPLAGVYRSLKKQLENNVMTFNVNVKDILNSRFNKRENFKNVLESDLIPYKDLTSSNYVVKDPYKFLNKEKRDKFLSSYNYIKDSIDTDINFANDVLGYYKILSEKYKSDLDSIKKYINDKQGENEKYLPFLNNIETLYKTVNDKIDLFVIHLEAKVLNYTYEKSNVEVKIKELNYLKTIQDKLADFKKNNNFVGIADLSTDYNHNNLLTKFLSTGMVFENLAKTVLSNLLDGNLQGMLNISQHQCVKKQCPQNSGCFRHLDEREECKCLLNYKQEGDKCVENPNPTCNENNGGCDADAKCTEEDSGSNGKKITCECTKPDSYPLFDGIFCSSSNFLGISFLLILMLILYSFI
GST-MSP138 (P. falciparum FCB1 MSP1 38 kDa fragment as GST fusion protein, C-terminal truncated forms) (Plasmodium falciparum (FCB1 strain)) [GST: P08515], sequence (P08515 whole entry, the tested form may be a part): as the sequence (P08515 whole entry, the tested form may be a part) above

Take “Human Band 3 peptide 5C (amino acid 742-761), synthetic with N-terminal biotin tag”: the IC50 values (50% inhibition in the parasite invasion of RBCs), 3H-hypoxanthine incorporation method in assay [1] was 591 µM.
With “MSP1: P. falciparum merozoite surface protein-1, native full-length”, in the assay on RBCs, the “binding to RBCs (earlier studies)” value was “bound to RBCs in sialic acid-dependent manner”. In addition, in the assay with GST-5ABC, the “binding of radiolabeled native parasite protein to GST-5ABC beads” value is “bound specifically to the 5ABC domain”.
On to “Human Band 3 peptide 6A (amino acid 807-826), synthetic with N-terminal biotin tag”, for which the IC50 values (50% inhibition in the parasite invasion of RBCs), 3H-hypoxanthine incorporation method in assay [1] came out at 316 µM.
With “GMPWLSATTVRSVTHANALTVMGKASTPGAAAQIQEVKEQRI (not fully specified) [Peptide 5ABC, Recombinant human Band 3 peptide, amino acid 720-761, expressed as GST or GAL4 DNA-BD fusion]”, the “binding to GST-MSP142 on beads” value in the assay with GST-MSP142 (32P-labeled 5ABC 10, 20, 40, 80 μM) is reported as “concentration-dependent manner”. For the same molecule, the affinity with GST-MSP142 (32P-labeled peptide, pH 7.4, 25° C., 3.5 h), expressed as Kd, was 36 µM. Also, in the assay on GST-MSP138, the “binding to GST-MSP138 on beads” value is listed as “specifically bound”.
For the molecule “32P-labeled MSP119 (P. falciparum FCB1 MSP1 19 kDa C-terminal fragment, GST removed with thrombin) (ligand)”, the figures for the increase in ability to bind MSP119 as compared to the untreated RBCs in assay [2] and in [4] were 51% and 52%, respectively. Moreover, the figures for the reduction in ability to bind MSP119 as compared to the untreated RBCs in [3], in [5] and in assay [6] were 41%, 37% and 30%, respectively. In addition, in [7], the reduction of radioactivity associated with Band 3 (-/-) mouse RBCs as compared to untreated wild-type mouse RBCs was determined as 72%.

B1: MSP142: 42 kDa proteolytic fragment of P. falciparum MSP1 (FCB1 strain) (protein)
chain: AISVTMDNILSGFENEYDVIYLKPLAGVYRSLKKQIEKNIFTFNLNLNDILNSRLKKRKYFLDVLESDLMQFKHISSNEYIIEDSFKLLNSEQKNTLLKSYKYIKESVENDIKFAQEGISYYEKVLAKYKDDLESIKKVIKEEKEKFPSSPPTTPPSPAKTDEQKKESKFLPFLTNIETLYNNLVNKIDDYLINLKAKINDCNVEKDEAHVKITKLSDLKAIDDKIDLFKNPYDFEAIKKLINDDTKKDMLGKLLSTGLVQNFPNTIISKLIEGKFQDMLNISQHQCVKKQCPENSGCFRHLDEREECKCLLNYKQEGDKCVENPNPTCNENNGGCDADATCTEEDSGSSRKKITCECTKPDSYPLFDGIFCS
As to B1, in the assay with GST-5ABC, the “binding of radiolabeled native parasite protein to GST-5ABC beads” value is listed as “bound specifically to the 5ABC domain”. The “binding to wild-type human RBCs (IFA)” value in [8] is recorded as “bound”. Further, in assay [9], the “binding to Band 3 (−/−) mouse RBCs (IFA)” value is given as “neither GST-MSP142, GST-MSP138, nor GST alone bound”. Also, in assay [9] (GST alone did not bind), the “binding to wild-type mouse RBCs (IFA)” value is “bound”.
As for SVTHANALTVMGKASTPGAAAQIQEVKEQRI (peptide, not shown: small tags and cut ends, modifications not checked) [32P-labeled 5BC (recombinant human Band 3 amino acid 731-761, GST removed with thrombin)], the Kd in assay [10] is 67 µM.
As to GMPWLSATTVRSVTHANALTVMGKASTPGAAAQIQEVKEQRI (peptide, not shown: small tags and cut ends, modifications not checked) [32P-labeled 5ABC (recombinant human Band 3 amino acid 720-761, GST removed with thrombin)], in assay [11], the Kd was found to be 36 µM.

B2: Lamin C fused to GAL4 DNA-BD (pGBKT7 vector), two-hybrid control (other)
chain: MKLLSSIEQACDICRLKKLKCSKEKPKCAKCLKNNWECRYSPKTKRSPLTRAHLTEVESRLERLEQLFLLIFPREDLDMILKMDSLQDIKALLTGLFVQDNVNKDAVTDRLASVETDMPLTLRQHRISATSSSEESSNKGQRQLTVSSEEVVSREVSGIKAAYEAELGDARKTLDSVAKERARLQLELSKVREEFKELKARNTKKEGDLIAAQARLKDLEALLNSKEAALSTALSEKRTLEGELHDLRGQVAKLEAALGEAKKQLQDEMLRRVDAENRLQTMKEELDFQKNIYSEELRETKRRHETRLVEID
notes: Kit control
As to B2, the binding result in assay [12] was “no binding”.

B3: p53 fused to GAL4 DNA-BD (pGBKT7 vector), two-hybrid control (other)
chain: MKLLSSIEQACDICRLKKLKCSKEKPKCAKCLKNNWECRYSPKTKRSPLTRAHLTEVESRLERLEQLFLLIFPREDLDMILKMDSLQDIKALLTGLFVQDNVNKDAVTDRLASVETDMPLTLRQHRISATSSSEESSNKGQRQLTVSPVTETPGPVAPAPATPWPLSSFVPSQKTYQGNYGFHLGFLQSGTAKSVMCTYSPPLNKLFCQLAKTCPVQLWVSATPPAGSRVRAMAIYKKSQHMTEVVRRCPHHERCSDGDGLAPPQHLIRVEGNLYPEYLEDRQTFRHSVVVPYEPPEAGSEYTTIHYKYMCNSSCMGGMNRRPILTIITLEDSSGNLLGRDSFEVRVCACPGRDRRTEEENFRKKEVLCPELPPGSAKRALPTCTSASPPQKKKPLDGEYFTLKIRGRKRFEMFRELNEALELKDAHATEESGDSRAHSSYLKTKKGQSTSRHKKTMVKKVGPDSD
notes: Kit control; also called pGBKT7-53
Take B3: the binding result in assay [13] is “binds”.
